{"source": "patent US20250325630A1", "about": "“HOMODIMER FUSION PROTEINS FOR TREATING ATOPIC DERMATITIS” (Intervet Inc., priority 2021, published 2025)", "molecules": {"B1": {"name": "c10A12 H2L6: caninized rat 10A12 anti-canine IL-31Rα antibody; likely c10A12VH2-cIgGBm (SEQ ID NO: 27) with c10A12VL6-cCl (SEQ ID NO: 31) (antibody)", "heavy": "EVQLVESGGDLVKPGGSLRLSCAASGFTFSNYYMAWVRQAPGKGLQWVASISTGGGNTYYRDSVKGRFTISRDNAKNTLYLQMNSLRAEDTAMYYCARHGTLYFDYWGQGTLVTVSSASTTAPSVFPLAPSCGSTSGSTVALACLVSGYFPEPVTVSWNSGSLTSGVHTFPSVLQSSGLYSLSSMVTVPSSRWPSETFTCNVAHPASKTKVDKPVPKRENGRVPRPPDCPKCPAPEMLGGPSVFIFPPKPKDTLLIARTPEVTCVVVALDPEDPEVQISWFVDGKQMQTAKTQPREEQFAGTYRVVSVLPIGHQDWLKGKQFTCKVNNKALPSPIERTISKARGQAHQPSVYVLPPSREELSKNTVSLTCLIKDFFPPDIDVEWQSNGQQEPESKYRTTPPQLDEDGSYFLYSKLSVDKSRWQRGDTFICAVMHEALHNHYTQESLSHSPGK", "light": "QPVLTQPPSLSASLGTTARLTCERSSGDIGDSYVSWYQQKPGSPPRDVIYVDDQRPSEVSKSFSGSKDTSANAGLLLISGLQPEDEADYFCQSYDSNIDGPVFGGGTHLTVLGQPKASPSVTLFPPSSEELGANKATLVCLISDFYPSGVTVAWKADGSPVTQGVETTKPSKQSNNKYAASSYLSLTPDKWKSHSSFSCLVTHEGSTVEKKVAPAECS"}, "B2": {"name": "c44E2 H5k1: caninized rat 44E2 anti-canine IL-31Rα antibody; likely c44E2VH5-cIgGBm (SEQ ID NO: 43) with c44E2VL1-cCk (SEQ ID NO: 45) (antibody)", "heavy": "ELTLQESGPGLVKPSQTLSLTCTVSGFSLTSNGVSWIRQRPGRGLEWMGAISSGGSTYYNSVLKSRISITADTAKNQFSLQLSSMTTEDTAVYYCARRLSGYNYVPFAYWGQGTLVTVSSASTTAPSVFPLAPSCGSTSGSTVALACLVSGYFPEPVTVSWNSGSLTSGVHTFPSVLQSSGLYSLSSMVTVPSSRWPSETFTCNVAHPASKTKVDKPVPKRENGRVPRPPDCPKCPAPEMLGGPSVFIFPPKPKDTLLIARTPEVTCVVVALDPEDPEVQISWFVDGKQMQTAKTQPREEQFAGTYRVVSVLPIGHQDWLKGKQFTCKVNNKALPSPIERTISKARGQAHQPSVYVLPPSREELSKNTVSLTCLIKDFFPPDIDVEWQSNGQQEPESKYRTTPPQLDEDGSYFLYSKLSVDKSRWQRGDTFICAVMHEALHNHYTQESLSHSPGK", "light": "EIVMTQSPASLSLSQEEKVTITCKASQNIYKHLAWYQQKPGQAPKLLIYNANSLQTGVPSRFSGSGSGTDFSFTISSLEPEDVAVYYCQQYYSGDTFGAGTKVELKRNDAQPAVYLFQPSPDQLHTGSASVVCLLNSFYPKDINVKWKVDGVIQDTGIQESVTEQDKDSTYSLSSTLTMSSTEYLSHELYSCEITHKSLPSTLIKSFQRSECQRVD"}, "B3": {"name": "cIL-4Rα-13Rα1_ZW1-cFc (Fc fusion)", "chain 1": "VKVLHEPSCFSDYISTSVCQWKMDHPTNCSAELRLSYQLDFMGSENHTCVPENREDSVCVCSMPIDDAVEADVYQLDLWAGQQLLWSGSFQPSKHVKPRTPGNLTVHPNISHTWLLMWTNPYPTENHLHSELTYMVNVSNDNDPEDFKVYNVTYMGPTLRLAASTLKSGASYSARVRAWAQTYNSTWSDWSPSTTWLNYYEPWEQHLPPKRENGRVPRPPDCPKCPAPEMLGGPSVFIFPPKPKDTLLIARTPEVTCVVVDLDPEDPEVQISWFVDGKQMQTAKTQPREEQFNGTYRVVSVLPIGHQDWLKGKQFTCKVNNKALPSPIERTISKARGQAHQPSVYVYPPSREELSKNTVSLTCLIKDFFPPDIDVEWQSNGQQEPESKYRTTPPQLDEDGSYALVSKLSVDKSRWQRGDTFICAVMHEALHNHYTQESLSHSPGK", "chain 2": "GGVAAPTETQPPVTNLSVSVENLCTVIWTWDPPEGASPNCTLRYFSHFDNKQDKKIAPETHRSKEVPLNERICLQVGSQCSTNESDNPSILVEKCTPPPEGDPESAVTELQCVWHNLSYMKCTWLPGRNTSPDTNYTLYYWHSSLGKILQCEDIYREGQHIGCSFALTNLKDSSFEQHSVQIVVKDNAGKIRPSFNIVPLTSHVKPDPPHIKRLFFQNGNLYVQWKNPQNFYSRCLSYQVEVNNSQTETNDIFYVEEAKCQNSEFEGNLEGTICFMVPGVLPDTLNTVRIRVRTNKLCYEDDKLWSNWSQAMSIGENTDPTPKRENGRVPRPPDCPKCPAPEMLGGPSVFIFPPKPKDTLLIARTPEVTCVVVDLDPEDPEVQISWFVDGKQMQTAKTQPREEQFNGTYRVVSVLPIGHQDWLKGKQFTCKVNNKALPSPIERTISKARGQAHQPSVYVLPPSREELSKNTVSLLCLIKDFFPPDIDVEWQSNGQQEPESKYLTWPPQLDEDGSYFLYSKLSVDKSRWQRGDTFICAVMHEALHNHYTQESLSHSPGK", "notes": "also called cIL4Rα-IL13Rα1_ZW1-cFc; cIL-4Rα-IL-13Rα1_ZW1-cFc"}}, "key": {"[1]": {"biological_target": "canine IL-31Rα", "assay": "ELISA binding of chimeric and caninized antibodies to canine IL-31Rα", "details": "FIG. 1-3, in words", "method": "The nucleotide and deduced amino acid sequence of the HC and LC of selected rat antibodies reactive with canine IL-31Rα was determined. The amino acid sequences representing the 3 HC CDRs and 3 LC CDRs for each antibody also were determined. These CDRs were used to develop caninized antibodies that bind canine IL-31Rα ECD. The binding of caninized antibodies to IL-31Rα was determined by ELISA as follows:\n• 1. Anti-Dog IgG (cFc specific)-Peroxidase (Sigma-Aldrich SAB3700109-1.5 MG) • 2. TMB-ELISA Substrate (Thermo-Fisher Cat #34028) • 3. PBS pH7.4 (Thermo-Fisher Cat #10010001) • 4. Tris Buffered Saline with Tween 20 (TBST) (Sigma-Aldrich T9039-10PAK)\n• 1. Coat immunoplates by cIL-31Rα in PBS buffer at 1 μg/mL, 100 μL/well. Incubate the plates at 37° C. for 1-2 hrs or 4° C. overnight. • 2. Wash the plates 3 times by TBST buffer. • 3. Block the plates by blocking buffer (0.5% BSA in TBST) for 45-60 minutes at room temperature. • 4. Three-fold dilute anti-cIL31-Ra antibodies with blocking buffer in dilution plates and transfer the diluted antibodies into the cIL-31Rα coated plates, incubate 45-60 minutes at room temperature. • 5. Wash the plates 3 times by TBST. • 6. Add 1:2000 diluted HRP conjugated anti-dog IgG Fc into the plates, incubate 45-60 minutes at room temperature. • 7. Wash the plates 3 times by TBST. • 8. […] Read the plates by plate reader at […]."}, "[2]": {"biological_target": "T1, canine IL-13 (canine, UniProt Q9N0W9 19-131, limits assumed, biotin-labeled in the Octet assay (site not stated))", "T1 construct": "Biotin-labeled and loaded on SA biosensors for the kinetics; unlabeled in the DH82 cell assay; also called cIL-13; canine Interleukin-13", "T1 sequence (looked up)": "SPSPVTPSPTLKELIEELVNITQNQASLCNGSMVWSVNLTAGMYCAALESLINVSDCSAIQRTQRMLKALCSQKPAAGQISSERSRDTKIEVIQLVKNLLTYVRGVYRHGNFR", "assay": "BLI (Octet HTX), biotin-cIL-13 on SA biosensors, fusion protein in solution, 1:1 fit", "method": "(§1) The binding constants for the cFc fusion proteins provided in Tables 3 and 4 below, were determined using OCTET® HTX. All kinetics measurements were performed by OCTET® HTX using SA® biosensors and DATA ACQUISITION® 12.0 software. 10 μg/mL of biotin-labeled antigen, either canine IL-4 (cIL-4) or canine IL-13 (cIL-13) were loaded onto the SAR biosensors for 120 seconds. Next, the biosensors were placed into 1×pH 7.0 TBS/Casein buffer for 60 seconds for the blocking phase. For the association phase, antigen loaded biosensors were placed into 2-fold serial dilutions from 1 μM down to 15.6 nM of the wild-type, the bispecific, or the FcRn-mutant receptor Fc-fusions that recognized the cIL-4 or cIL-13 antigen in 1×pH 7.0 TBS/Casein buffer for 30 seconds. The last well was buffer alone and that sensor was used for reference sensor subtraction. Finally, the biosensors were placed into 1×pH 7.0 TBS/Casein buffer for 120 seconds for the dissociation phase. The results were then analyzed using Data Analysis 12.0 software and the curves were fitted using a 1:1 binding model."}, "[3]": {"biological_target": "T2, canine IL-4 (canine, UniProt O77762 25-132, biotin-labeled in the Octet assay (site not stated))", "T2 sequence (looked up)": "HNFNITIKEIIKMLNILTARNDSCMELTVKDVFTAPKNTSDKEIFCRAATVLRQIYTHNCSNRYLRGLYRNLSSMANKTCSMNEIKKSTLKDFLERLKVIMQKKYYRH", "assay": "cell-based or functional assay"}, "[4]": {"biological_target": "T1, canine IL-13", "assay": "cell-based or functional assay"}, "[5]": {"biological_target": "T1, canine IL-13", "assay": "cell-based or functional assay", "remark": "listed apart in the source"}, "[6]": {"biological_target": "T2, canine IL-4", "assay": "cell-based or functional assay", "remark": "listed apart in the source"}, "[7]": {"biological_target": "T1, canine IL-13", "assay": "cell-based or functional assay", "remark": "listed apart in the source"}, "[8]": {"biological_target": "T2, canine IL-4", "assay": "BLI (Octet)", "method": "as §1"}, "[9]": {"biological_target": "T1, canine IL-13", "assay": "BLI (Octet)", "method": "as §1"}, "[10]": {"biological_target": "T2, canine IL-4", "assay": "BLI (Octet); summary table, rounded from Table 3"}, "[11]": {"biological_target": "T2, canine IL-4", "assay": "BLI (Octet HTX), biotin-cIL-4 on SA biosensors, fusion protein in solution, 1:1 fit", "method": "as §1"}, "[12]": {"biological_target": "T1, canine IL-13", "assay": "BLI (Octet); summary table, rounded from Table 4"}}}
{"molecule": "B1", "values": [{"measurement": "EC50 of binding to canine IL-31Rα compared with the corresponding chimeric antibody", "setting": "[1]", "value": "even lower than the EC50 for the corresponding chimeric 10A12 antibody"}]}
{"molecule": "B2", "values": [{"measurement": "EC50 of binding to canine IL-31Rα compared with the corresponding chimeric antibody", "setting": "[1]", "value": "most similar to the EC50 of the corresponding chimeric 44E2 antibody"}]}
{"molecule": "B3", "values": [{"measurement": "Kd", "setting": "[2]", "value": 0.415, "unit": "nM"}, {"measurement": "koff", "setting": "[2]", "value": "3.91e-05", "unit": "s⁻¹"}, {"measurement": "kon", "setting": "[2]", "value": 94400, "unit": "M⁻¹ s⁻¹"}, {"measurement": "IL-4 IC50 (inhibition of cIL-4 mediated STAT6 phosphorylation in DH82 cells)", "setting": "[3]", "value": 0.046, "unit": "nM"}, {"measurement": "fold change of the concentration that inhibits 50% of the cIL-13 mediated STAT6 phosphorylation in DH82 cells, against cIL-13Rα1-cFc", "setting": "[4]", "value": 6, "unit": "fold lower"}, {"measurement": "fold change of the concentration that inhibits 50% of the cIL-13 mediated STAT6 phosphorylation in DH82 cells, against cIL-13Rα2-cFc", "setting": "[4]", "value": "~20", "unit": "fold higher"}, {"measurement": "IL-13 IC50 (inhibition of cIL-13 mediated STAT6 phosphorylation in DH82 cells)", "setting": "[5]", "value": 3.02, "unit": "nM"}, {"measurement": "IL-4 (IC50), summary table", "setting": "[6]", "value": 0.05, "unit": "nM"}, {"measurement": "IL-13 (IC50), summary table", "setting": "[7]", "value": 3, "unit": "nM"}, {"measurement": "fold change of KD against the unmodified cIL-4Rα-cFc homodimer", "setting": "[8]", "value": "~10000", "unit": "fold"}, {"measurement": "fold tighter binding than the unmodified IL-13Rα1-cFc", "setting": "[9]", "value": 8, "unit": "fold"}, {"measurement": "Kd", "setting": "[10]", "value": 10, "unit": "nM"}, {"measurement": "Kd", "setting": "[11]", "value": 9.85, "unit": "nM"}, {"measurement": "koff", "setting": "[11]", "value": 0.00234, "unit": "s⁻¹"}, {"measurement": "kon", "setting": "[11]", "value": 237000, "unit": "M⁻¹ s⁻¹"}, {"measurement": "Kd", "setting": "[12]", "value": 0.4, "unit": "nM"}]}
